The record followed here is PMC11574045, “A cofactor-induced repressive type of transcription factor condensation can be induced by synthetic peptides to suppress tumorigenesis” (The EMBO Journal, 2024).

B1: DMP-1 (protein, UniProt Q9Y222 1-760, looked up)
Cyclin-D-binding Myb-like …: MSTVEEDSDTVTVETVNSVTLTQDTEGNLILHCPQNEADEIDSEDSIEPPHKRLCLSSEDDQSIDDSTPCISVVALPLSENDQSFEVTMTATTEVADDEVTEGTVTQIQILQNEQLDEISPLGNEEVSAVSQAWFTTKEDKDSLTNKGHKWKQGMWSKEEIDILMNNIERYLKARGIKDATEIIFEMSKDERKDFYRTIAWGLNRPLFAVYRRVLRMYDDRNHVGKYTPEEIEKLKELRIKHGNDWATIGAALGRSASSVKDRCRLMKDTCNTGKWTEEEEKRLAEVVHELTSTEPGDIVTQGVSWAAVAERVGTRSEKQCRSKWLNYLNWKQSGGTEWTKEDEINLILRIAELDVADENDINWDLLAEGWSSVRSPQWLRSKWWTIKRQIANHKDVSFPVLIKGLKQLHENQKNNPTLLENKSGSGVPNSNTNSSVQHVQIRVARLEDNTAISSSPMAALQIPVQITHVSSADSPATVDSETITLNSGTLQTFEILPSFHLQPTGTPGTYLLQTSSSQGLPLTLTASPTVTLTAAAPASPEQIIVHALSPEHLLNTSDNVTVQCHTPRVIIQTVATEDITSSISQAELTVDSDIQSSDFPEPPDALEADTFPDEIHHPKMTVEPSFNDAHVSKFSDQNSTELMNSVMVRTEEEISDTDLKQEESPSDLASAYVTEGLESPTIEEQVDQTIDDETILIVPSPHGFIQASDVIDTESVLPLTTLTDPILQHHQEESNIIGSSLGSPVSEDSKDVEDLVNCH
B2: DP-1 (protein, UniProt Q14186 1-410, looked up)
Transcription factor Dp-1: MAKDAGLIEANGELKVFIDQNLSPGKGVVSLVAVHPSTVNPLGKQLLPKTFGQSNVNIAQQVVIGTPQRPAASNTLVVGSPHTPSTHFASQNQPSDSSPWSAGKRNRKGEKNGKGLRHFSMKVCEKVQRKGTTSYNEVADELVAEFSAADNHILPNESAYDQKNIRRRVYDALNVLMAMNIISKEKKEIKWIGLPTNSAQECQNLEVERQRRLERIKQKQSQLQELILQQIAFKNLVQRNRHAEQQASRPPPPNSVIHLPFIIVNTSKKTVIDCSISNDKFEYLFNFDNTFEIHDDIEVLKRMGMACGLESGSCSAEDLKMARSLVPKALEPYVTEMAQGTVGGVFITTAGSTSNGTRFSASDLTNGADGMLATSSNGSQYSGSRVETPVSYVGEDDEEDDDFNENDEDD
B3: DDIT3 (protein, UniProt P35638 1-169, looked up)
DNA damage-inducible …: MAAESLPFSFGTLSSWELEAWYEDLQEVLSSDENGGTYVSPPGNEEEESKIFTTLDPASLAWLTEEEPEPAEVTSTSQSPHSPDSSQSSLAQEEEEEDQGRTRKRKQSGHSPARAGKQRMKEKEQENERKVAQLAEENERLKQEIERLTREVEATRRALIDRMVNLHQA
B4: DPRX (protein, UniProt A6NFQ7 1-191, looked up)
Divergent paired-related …: MPGSEDLRKGKDQMHSHRKRTMFTKKQLEDLNILFNENPYPNPSLQKEMASKIDIHPTVLQVWFKNHRAKLKKAKCKHIHQKQETPQPPIPEGGVSTSVGLRNADTLPRLPNAAHPIGLVYTGHRVPSFQLILYPNLKVPANDFIGHRIVHFGCCRDPNIYCLYPILESQVCAPSFHSGSPACSSNQSRER
B5: DLX2 (protein, UniProt Q07687 1-328, looked up)
Homeobox protein DLX-2: MTGVFDSLVADMHSTQIAASSTYHQHQQPPSGGGAGPGGNSSSSSSLHKPQESPTLPVSTATDSSYYTNQQHPAGGGGGGGSPYAHMGSYQYQASGLNNVPYSAKSSYDLGYTAAYTSYAPYGTSSSPANNEPEKEDLEPEIRIVNGKPKKVRKPRTIYSSFQLAALQRRFQKTQYLALPERAELAASLGLTQTQVKIWFQNRRSKFKKMWKSGEIPSEQHPGASASPPCASPPVSAPASWDFGVPQRMAGGGGPGSGGSGAGSSGSSPSSAASAFLGNYPWYHQTSGSASHLQATAPLLHPTQTPQPHHHHHHHGGGGAPVSAGTIF
B6: DDX17 (protein, UniProt Q92841 1-729, looked up)
Probable ATP-dependent RNA …: MPTGFVAPILCVLLPSPTREAATVASATGDSASERESAAPAAAPTAEAPPPSVVTRPEPQALPSPAIRAPLPDLYPFGTMRGGGFGDRDRDRDRGGFGARGGGGLPPKKFGNPGERLRKKKWDLSELPKFEKNFYVEHPEVARLTPYEVDELRRKKEITVRGGDVCPKPVFAFHHANFPQYVMDVLMDQHFTEPTPIQCQGFPLALSGRDMVGIAQTGSGKTLAYLLPAIVHINHQPYLERGDGPICLVLAPTRELAQQVQQVADDYGKCSRLKSTCIYGGAPKGPQIRDLERGVEICIATPGRLIDFLESGKTNLRRCTYLVLDEADRMLDMGFEPQIRKIVDQIRPDRQTLMWSATWPKEVRQLAEDFLRDYTQINVGNLELSANHNILQIVDVCMESEKDHKLIQLMEEIMAEKENKTIIFVETKRRCDDLTRRMRRDGWPAMCIHGDKSQPERDWVLNEFRSGKAPILIATDVASRGLDVEDVKFVINYDYPNSSEDYVHRIGRTARSTNKGTAYTFFTPGNLKQARELIKVLEEANQAINPKLMQLVDHRGGGGGGGGRSRYRTTSSANNPNLMYQDECDRRLRGVKDGGRRDSASYRDRSETDRAGYANGSGYGSPNSAFGAQAGQYTYGQGTYGAAAYGTSSYTAQEYGAGTYGASSTTSTGRSSQSSSQQFSGIGRSGQQPQPLMSQQFAQPPGATNMIGYMGQTAYQYPPPPPPPPPSRK
B7: DDX20 (protein, UniProt Q9UHI6 1-824, looked up)
Probable ATP-dependent RNA …: MAAAFEASGALAAVATAMPAEHVAVQVPAPEPTPGPVRILRTAQDLSSPRTRTGDVLLAEPADFESLLLSRPVLEGLRAAGFERPSPVQLKAIPLGRCGLDLIVQAKSGTGKTCVFSTIALDSLVLENLSTQILILAPTREIAVQIHSVITAIGIKMEGLECHVFIGGTPLSQDKTRLKKCHIAVGSPGRIKQLIELDYLNPGSIRLFILDEADKLLEEGSFQEQINWIYSSLPASKQMLAVSATYPEFLANALTKYMRDPTFVRLNSSDPSLIGLKQYYKVVNSYPLAHKVFEEKTQHLQELFSRIPFNQALVFSNLHSRAQHLADILSSKGFPAECISGNMNQNQRLDAMAKLKHFHCRVLISTDLTSRGIDAEKVNLVVNLDVPLDWETYMHRIGRAGRFGTLGLTVTYCCRGEEENMMMRIAQKCNINLLPLPDPIPSGLMEECVDWDVEVKAAVHTYGIASVPNQPLKKQIQKIERTLQIQKAHGDHMASSRNNSVSGLSVKSKNNTKQKLPVKSHSECGIIEKATSPKELGCDRQSEEQMKNSVQTPVENSTNSQHQVKEALPVSLPQIPCLSSFKIHQPYTLTFAELVEDYEHYIKEGLEKPVEIIRHYTGPGDQTVNPQNGFVRNKVIEQRVPVLASSSQSGDSESDSDSYSSRTSSQSKGNKSYLEGSSDNQLKDSESTPVDDRISLEQPPNGSDTPNPEKYQESPGIQMKTRLKEGASQRAKQSRRNLPRRSSFRLQTEAQEDDWYDCHREIRLSFSDTYQDYEEYWRAYYRAWQEYYAAASHSYYWNAQRHPSWMAAYHMNTIYLQEMMHSNQ
B8: DLX4 (protein, UniProt Q92988 1-240, looked up)
Homeobox protein DLX-4: MTSLPCPLPGRDASKAVFPDLAPVPSVAAAYPLGLSPTTAASPNLSYSRPYGHLLSYPYTEPANPGDSYLSCQQPAALSQPLCGPAEHPQELEADSEKPRLSPEPSERRPQAPAKKLRKPRTIYSSLQLQHLNQRFQHTQYLALPERAQLAAQLGLTQTQVKIWFQNKRSKYKKLLKQNSGGQEGDFPGRTFSVSPCSPPLPSLWDLPKAGTLPTSGYGNSFGAWYQHHSSDVLASPQMM
B9: ACTL6B (protein, UniProt Q99MR0 1-426, looked up)
Actin-like protein 6B: MSGGVYGGDEVGALVFDIGSFSVRAGYAGEDCPKADFPTTVGLLAAEEGGGLELEGEKEKKGKIFHIDTNALHVPRDGAEVMSPLKNGMIEDWECFRAILDHTYSKHVKSEPNLHPVLMSEAPWNTRAKREKLTELMFEQYNIPAFFLCKTAVLTAFANGRSTGLVLDSGATHTTAIPVHDGYVLQQGIVKSPLAGDFISMQCRELFQEMAIDIIPPYMIAAKEPVREGAPPNWKKKEKLPQVSKSWHNYMCNEVIQDFQASVLQVSDSPYDEQVAAQMPTVHYEMPNGYNTDYGAERLRIPEGLFDPSNVKGLSGNTMLGVGHVVTTSIGMCDIDIRPGLYGSVIVTGGNTLLQGFTDRLNRELSQKTPPSMRLKLIASNSTMERKFSPWIGGSILASLGTFQQMWISKQEYEEGGKQCVERKCP
B10: DMRTA1 (protein, UniProt Q5VZB9 1-504, looked up)
Doublesex- and mab-3-related …: MERSQCGSRDRGVSGRPHLAPGLVVAAPPPPSPALPVPSGMQVPPAFLRPPSLFLRAAAAAAAAAAATSGSGGCPPAPGLESGVGAVGCGYPRTPKCARCRNHGVVSALKGHKRFCRWRDCACAKCTLIAERQRVMAAQVALRRQQAQEESEARGLQRLLCSGLSWPPGGRASGGGGRAENPQSTGGPAAGAALGLGALRQASGSATPAFEVFQQDYPEEKQEQKESKCESCQNGQEELISKSHQLYLGSSSRSNGVIGKQSIGSSISEYSNKPDSILSPHPGEQSGGEESPRSLSSSDLESGNESEWVKDLTATKASLPTVSSRPRDPLDILTKIFPNYRRSRLEGILRFCKGDVVQAIEQVLNGKEHKPDNRNLANSEELENTAFQRASSFSLAGIGFGTLGNKSAFSPLQTTSASYGGDSSLYGVNPRVGISPLRLAYSSAGRGLSGFMSPYLTPGLVPTLPFRPALDYAFSGMIRDSSYLSSKDSITCGRLYFRPNQDNP
B11: DBX2 (protein, UniProt Q6ZNG2 1-339, looked up)
Homeobox protein DBX2: MLPSAVAAHAGAYWDVVASSALLNLPAAPGFGNLGKSFLIENLLRVGGAPTPRLQPPAPHDPATALATAGAQLRPLPASPVPLKLCPAAEQVSPAGAPYGTRWAFQVLSPSADSARLPGRAPGDRDCTFQPSAPAPSKPFLLSTPPFYSACCGGSCRRPASSTAFPREESMLPLLTQDSNSKARRGILRRAVFSEDQRKALEKMFQKQKYISKTDRKKLAINLGLKESQVKIWFQNRRMKWRNSKEKEVLSNRCIQEVGLQEDPLSRSALGFPSPCPSIWDVPQQHSSPRWRENSPEPSERLIQESSGAPPPEANSLQGALYLCSEEEAGSKGVLTGAV

This test deals with HEK293FT cells transfected with TF library. Put plainly: Screening of TF condensates based on fluorescent puncta. Conditions: Figure 1B numerical data; TF library screen, one value per transcriptional factor. The test is classed as cell-based. The protocol:
TF plasmids were automatically added to black-walled 384-well plates at 80 ng per well to reach a final concentration of 1.6 μg/ml. Polyethylenimine (PEI, Sigma) was then added to the plasmid-loaded plates at 240 ng per well (4.8 μg/ml). Subsequently, HEK293FT cells were seeded into the plate at 2000 cells per well. After 60 h, cells were cultured in medium with or without glucose for 12 h, and then fixed with 4% paraformaldehyde (PFA) at room temperature for 30 min. After three washes with PBS, fixed cells were permeabilized with 0.05% Triton X-100 for 15 min. Thereafter, cells were blocked with 5% BSA for 1 h, and then incubated overnight with anti-Flag (Sigma F3165, 1:200) and anti-GAL4 (Abbkine ABP57232, 1:200) primary antibodies at 4 °C. The cells were then gently washed with PBS, followed by being incubated with Alexa Fluor Plus 488 goat anti-mouse IgG secondary antibody (Thermo A32723, 1:400) or Alexa Fluor Plus 488 goat anti-rabbit IgG secondary antibody (Thermo A32731, 1:400) for 1 h. The plates were kept at 4 °C in the dark before being analyzed using an Opera System (Perkin Elmer). Fifty random fields per well were scanned and analyzed using the Columbus Plus Image Data Storage and Analysis System (Perkin Elmer).
With B1, the “Z score of condensed fraction” value turned out to be 2.192. As for B2, the “Z score of condensed fraction” value amounted to 0.7932.

Turning to B3, the “Z score of condensed fraction” value is -1.245. For B4, the “Z score of condensed fraction” value is recorded as -0.8656.

B5: the “Z score of condensed fraction” value is reported as 0.04096. On to B6, for which the “Z score of condensed fraction” value is listed as 0.6597. For B7, the “Z score of condensed fraction” value came out at 1.184. Consider B8, for which the “Z score of condensed fraction” value is reported as -0.356. The figure for B9 is 0.5544; for B10 it is -0.1434; for B11 it is 2.182.
